# Target: T1, endothelial nitric oxide synthase (eNOS), purified, unphosphorylated (UniProt P29473)
# T1 sequence: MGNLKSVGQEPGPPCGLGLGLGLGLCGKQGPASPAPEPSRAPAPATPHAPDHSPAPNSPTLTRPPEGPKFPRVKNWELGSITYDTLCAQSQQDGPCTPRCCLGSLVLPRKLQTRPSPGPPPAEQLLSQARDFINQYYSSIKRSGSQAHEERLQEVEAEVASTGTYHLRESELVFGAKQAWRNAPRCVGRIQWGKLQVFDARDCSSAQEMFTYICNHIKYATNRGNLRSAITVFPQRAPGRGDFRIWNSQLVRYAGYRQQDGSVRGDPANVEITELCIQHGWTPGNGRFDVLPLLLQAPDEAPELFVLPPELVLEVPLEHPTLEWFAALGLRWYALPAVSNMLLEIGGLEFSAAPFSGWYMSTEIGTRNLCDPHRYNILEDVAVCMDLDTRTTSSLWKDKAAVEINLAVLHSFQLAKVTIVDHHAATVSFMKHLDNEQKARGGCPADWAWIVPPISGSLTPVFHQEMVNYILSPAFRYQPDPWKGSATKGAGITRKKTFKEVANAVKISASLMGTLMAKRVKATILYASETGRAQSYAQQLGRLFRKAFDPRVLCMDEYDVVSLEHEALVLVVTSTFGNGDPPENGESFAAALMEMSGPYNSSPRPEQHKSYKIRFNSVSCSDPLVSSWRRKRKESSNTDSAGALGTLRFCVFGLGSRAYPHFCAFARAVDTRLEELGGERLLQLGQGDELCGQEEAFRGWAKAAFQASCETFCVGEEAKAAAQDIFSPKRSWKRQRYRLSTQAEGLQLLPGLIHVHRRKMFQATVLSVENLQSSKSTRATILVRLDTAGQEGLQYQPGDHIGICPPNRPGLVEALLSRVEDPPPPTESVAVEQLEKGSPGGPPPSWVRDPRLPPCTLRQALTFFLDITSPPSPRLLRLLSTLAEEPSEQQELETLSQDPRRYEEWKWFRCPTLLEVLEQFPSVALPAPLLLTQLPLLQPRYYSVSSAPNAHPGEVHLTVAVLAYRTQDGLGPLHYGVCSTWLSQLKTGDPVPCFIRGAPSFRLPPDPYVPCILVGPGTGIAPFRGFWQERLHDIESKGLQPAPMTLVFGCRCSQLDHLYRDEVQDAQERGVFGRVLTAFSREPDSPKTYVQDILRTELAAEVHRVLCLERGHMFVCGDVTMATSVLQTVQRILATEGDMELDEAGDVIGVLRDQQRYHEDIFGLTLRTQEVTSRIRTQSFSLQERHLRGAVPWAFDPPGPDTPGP
substance,measurement,value
Phosphorylated His-p38 (p38 MAP kinase),NO production (hemoglobin capture assay),Weak inhibition of NO formation by 1 µM p38 in the presence of 0.6 µM CaM was observed; NO production was reduced by an average of 30%

# From patent US20150232576
